Test results as given in patent publication US20230235054A1 (BIOATLA, published 2023).
Numbering of substitutions follows the chain as printed.

Legend:
huNectin4-His [1] = molecular target: T1, huNectin4-His (human, UniProt Q96NY8 32-349); test: SPR, huNectin4-His immobilized, pH 6.5
T1 construct: Immobilized on the SPR chip; also called humanNectin4; human Nectin4; not shown: His tag
T1 sequence (looked up): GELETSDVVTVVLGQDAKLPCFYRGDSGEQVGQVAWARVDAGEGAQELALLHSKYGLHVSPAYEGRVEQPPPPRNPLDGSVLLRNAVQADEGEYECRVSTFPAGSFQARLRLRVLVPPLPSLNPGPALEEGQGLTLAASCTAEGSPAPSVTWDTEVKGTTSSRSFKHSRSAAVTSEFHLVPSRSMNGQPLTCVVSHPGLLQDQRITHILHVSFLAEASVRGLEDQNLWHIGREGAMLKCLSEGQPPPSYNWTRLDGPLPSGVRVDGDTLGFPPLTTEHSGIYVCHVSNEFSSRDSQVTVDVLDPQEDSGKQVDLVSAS
Protocol: (§1) Binding kinetics of anti-Nectin4 antibodies were measured by surface plasmon resonance using a SPR2/4 instrument (Sierra Sensors, Hamburg, Germany) and flat amine sensor chips. The SPR sensor contained four flow cells (FC1-FC4), each of which was addressed individually or in groups. huNectin4-His was immobilized in FC2, and cynoNectin4-mFc in FC4. No protein was immobilized in FC1 and FC3 which were used as control surfaces for FC2 and FC4, respectively.
(§2) All injections were done at a flow rate of 25 μL/min at 25° C. The sensor surface was activated with 1-ethyl-3-(3-dimethylaminopropyl)-carbodiimide (EDC) and N-hydroxysuccinimide (NHS) (200 mM/50 mM) for 480 seconds. HuNectin4-His (2 μg/mL in 10 mM NaAc, pH4.5) was injected for 480s and the surface was inactivated by injecting 1M ethanolamine-HCl for 480s. CynoNectin4 was immobilized using the same conditions as described for huNectin4-His, except that the cynoNectin4 was diluted into 10 mM NaAc buffer having pH 5.0. The control surface was activated and deactivated using the same conditions, but without injecting protein. PBST buffer (PBS pH 7.4 with 0.05% TWEEN20™) was used as running buffer for the surface preparation. The running solution was switched to PBST with 30 mM sodium bicarbonate with the pH adjusted as indicated in the figures before the analyte injections. The instrument was equilibrated with the running solution for one hour before the first analyte injection.
(§3) The off-rate was measured for 360s. The chip surface was regenerated after each cycle of interaction analysis by injecting 6 μL of 10 mM glycine (pH 2.0). Flow cells 1 and 3 without immobilized protein were used as control surfaces for reference subtraction.

human Nectin-4 on cells [2] = molecular target: T2, human Nectin-4 on cells (human, UniProt Q96NY8 32-510); test: cell-based or functional assay
T2 sequence (looked up): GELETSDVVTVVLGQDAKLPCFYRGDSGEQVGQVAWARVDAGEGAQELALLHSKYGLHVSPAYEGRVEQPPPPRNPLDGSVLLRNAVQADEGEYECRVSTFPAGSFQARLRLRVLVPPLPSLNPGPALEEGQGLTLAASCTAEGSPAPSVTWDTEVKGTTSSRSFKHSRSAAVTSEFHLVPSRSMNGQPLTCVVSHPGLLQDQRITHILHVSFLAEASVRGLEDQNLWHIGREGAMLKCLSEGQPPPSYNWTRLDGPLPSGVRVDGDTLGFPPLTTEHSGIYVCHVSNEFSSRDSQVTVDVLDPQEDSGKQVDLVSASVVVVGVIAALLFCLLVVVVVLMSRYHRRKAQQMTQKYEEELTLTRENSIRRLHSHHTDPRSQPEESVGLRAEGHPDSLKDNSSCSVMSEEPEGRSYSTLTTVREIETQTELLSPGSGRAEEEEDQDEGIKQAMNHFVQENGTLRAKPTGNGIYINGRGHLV

human Nectin-4 on cells [3] = molecular target: T2, human Nectin-4 on cells; test: FACS, T47D cells
huNectin4-His [4] = molecular target: T1, huNectin4-His; test: SPR, huNectin4-His immobilized, pH 7.4
Protocol: as §1, §2, §3

human Nectin-4 on cells [5] = molecular target: T2, human Nectin-4 on cells; test: FACS, HEK293 cells expressing human Nectin-4
Protocol: FACS analysis was carried out using HEK293 cells expressing human Nectin-4.

cyno Nectin-4 on cells = molecular target: T3, cyno Nectin-4 on cells (cyno, UniProt A0A2K5WES1 32-510); test: FACS, HEK293 cells expressing cyno Nectin-4
T3 construct: whole, on cells; also called HEK293 cells expressing cyno Nectin-4; cyno Nectin-4 cells
T3 sequence: T2 sequence (looked up) with V39A, I230V, A437T

human Nectin-4 on cells [6] = molecular target: T2, human Nectin-4 on cells; test: FACS, T47D cells; remark: listed apart in the source

Kd (huNectin4-His [1]): 5.15 nM
koff (huNectin4-His [1]): 0.00245 s⁻¹
kon (huNectin4-His [1]): 476000 M⁻¹ s⁻¹
Ratio (pH 7.4/6.0) of EC50 (human Nectin-4 on cells [3]): 6.2
Kd (huNectin4-His [4]): 1.81 nM
koff (huNectin4-His [4]): 0.000517 s⁻¹
kon (huNectin4-His [4]): 285000 M⁻¹ s⁻¹
Ratio (pH 7.4/6.0) of EC50 (human Nectin-4 on cells [5]): 3.3
Ratio (pH 7.4/6.0) of EC50 (cyno Nectin-4 on cells): 4.1
Ratio (pH 7.4/6.0) of EC50 (human Nectin-4 on cells [6]): 6.7
B1: BAP-143-00-01 (antibody, V domains shown)
VH: EVQLVESGGGLVQPGGSLRLSCAASGFTFSSYNMNWVRQAPGKGLEWVSYISSSSSTIYYADSVKGRFTISRDNAKNSLSLQMNSLRDEDTAVYYCARAYYYGMDVWGQGTTVTVSS
VL: DIQMTQSPSSVSASVGDRVTITCRASQGISGWEAWYQQKPGKAPKFLIYAASTLQSGVPSRFSGSGSGTDFTLTISSLQPEDFATYYCQQANSFPPTFGGGTKVEIK
notes: Used as a conjugate with a linker payload (CAB ADC)
Ratio (pH 7.4/6.0) of cell killing EC50 (human Nectin-4 on cells [2]): 2.1
